Assays:
[1] = test system: human degenerative disc NP cells; test: Caspase 9 Lumi-Glo assay, cytokine induced; type: cell-based; conditions: 48 hrs
Description: Apoptosis induced in NP cells (rat and human) as result of treatment with pro-inflammatory cytokines (IL-1β and TNFα) was determined using Caspase 3/7 and Caspase 9 specific Lumi-Glo assays (Promega, Madison). Briefly, NP cells were plated and treated with either IL-1β alone or in combination with TNFα only or in presence of CTGF and TGFβ1 for 48 hrs, followed by addition of specific reagents for Caspase 3/7 and Caspase 9 as per the manufacturer's instructions. Cells were incubated for another 4 hrs at 37° C., and plates were read in a multi-well luminescence plate reader.

[2] = test system: rat NP cells; test: Western blotting of rat NP cells treated with IL-1β/TNFα with or without inhibitors or growth factors; type: cell-based; conditions: rat-tail NP cells treated with IL-1β and TNFα, Western blot, FIG. 5g-5h
Description: After euthanasia, healthy rat lumbar/caudal spine IVDs, injured tail discs and bovine caudal IVD NPs were removed aseptically and the nucleus pulposus (NP) was removed separately and enzymatically digested according to methods established by the present inventors^16. Similarly, human degenerative disc NPs were enzymatically digested using Pronase (0.4%, 1 hr at 37° C.) followed by Collagenase II treatment (0.015%, O/N, 37° C.). The following day, the cells were filtered with a 70p cell strainer and cultured within a hypoxic incubator (NuAire, MN, USA) in 3.5% O2, 5% CO2, in Advanced Dulbecco's modified Eagle's medium (ADMEM) supplemented with 8% fetal bovine serum (FBS) and penicillin and streptomycin (100 U/mL). For treatments, the cells were either cultured in serum free ADMEM (no treatment controls) or treated with interleukin-1β (IL-1β, 10 ng/mL), tumor necrosis factor-alpha (TNFα, 50 ng/mL), connective tissue growth factor (CTGF, 10-100 ng/mL), Wnt-inducible soluble protein 2 (WISP2, 10-100 ng/mL) or transforming growth factor beta 1 (TGFβ1, 5-20 ng/mL) for various time points under hypoxic conditions.
Equal amounts of whole cell or tissue lysates prepared using RIPA lysis buffer were subjected to Western blotting as described earlier^18,19. Total lysates (30 μg) were resolved on 10% sodium dodecyl sulphate-polyacrylamide gels (SDS-PAGE) under reducing conditions and then proteins were electro-transferred onto polyvinyledendifluoride (PVDF) membranes (BioRad, CA). After blocking with 5% non-fat powdered milk in Tris-buffered saline (TBS, 0.1 M, pH=7.4), blots were incubated with rabbit or goat polyclonal/mouse monoclonal primary antibodies at 4° C. overnight. […] Blots were washed three times with TTBS for 15 minutes and protein bands were detected by the enhanced chemiluminescence method (BioRad, CA) on Kodak Hyperfilm.

[3] = test system: rat-tail disc NP cells (healthy/injured); test: MTT cell viability assay; type: cell-based; conditions: CTGF 100 ng/ml, TGFβ1 10 ng/ml, 48 hrs-72 hrs
Description: (§1) Nucleus pulposus cells (rat, bovine and human) were plated in 96-well flat bottom plates in order to evaluate the effect of treatment with growth factors in cell viability and proliferation assays. Rat NP cells were treated with CTGF, WISP-2 and TGFβ1 in a dose (1 ng/mL-100 ng/mL) and time dependent manner (24 hrs-96 hrs) to determine the optimum dose and time for the assessment of these growth factors on viability. Cell viability was determined using 3-(4,5-dimethylthiazol-2-yl)-2,5-diphenyltetrazolium bromide (MTT, Sigma-Aldrich, USA) as previously described^44. A BrdU-ELISA (colorimetric) assay (Cat #ab126556, Abcam) was used for determining the effect of treatment with CTGF or TGFβ1 on human and rat NP cells (healthy/injured) following the manufacturer's instructions. Briefly, NP cells were treated with CTGF or TGFβ1 alone or in combination for 48 hrs following addition of BrdU reagent O/N in each well. Incorporated BrdU in DNA of proliferating cells was determined using anti-BrdU antibody and quantified by ELISA as per the manufacturer's instructions.

[4] = test system: human degenerated disc NP cells; test: MTT cell viability assay; type: cell-based
Description: as §1

[5] = test system: bovine degenerative disc NP cells; test: MTT cell viability assay; type: cell-based; conditions: CTGF 100 ng/ml, TGFβ1 10 ng/ml, 48 hrs-72 hrs
Description: as §1

[6] = test system: rat-tail injured disc NPs; test: Pre-clinical rodent needle puncture disc injury model of DDD, intra-discal injection; type: in vivo, Wistar rat
Description: 12-week old female Wistar rats (Charles River Laboratories International, Inc., MA, USA) were used in order to develop a pre-clinical rodent model of DDD and to evaluate the therapeutic potential of NCCM, CTGF and TGFβ1 in these pre-clinical rodent models. Experiments were performed in accordance with the Guide for the Care and Use of Laboratory Animals, and the experimental protocols were approved by the ethics approval board of Toronto Western Hospital, Toronto, ON, Canada. The surgical procedure was as follows: Anesthesia was achieved using isofluorane (5 L/min plus 1 L/min O2) and maintained at 3 L/min. Once deeply anaesthetized, the animal was affixed on a stereotactic procedure apparatus (Model 900, Kopf Instruments California USA) with nose cone inhalation. For animal experiments, the tail was shaved and prepped with isopropanol in a sterile manner. Fluoroscopy was used to visualize needle penetration and to ensure that the needle penetrated into the center of the NP. For disc injury, a 26-gauge (G), 35° beveled, 0.75 inches high needle (Hamilton Company, USA) mounted on a Hamilton syringe was used. The needle was advanced completely through the selected tail IVD to penetrate the full thickness inclusive of the annulus fibrosus on both sides of the disc. Confirmation of needle placement was made using fluoroscopy and maintained in position for 2 minutes, withdrawn halfway to the center of the NP and left there for 1 minute and then slowly withdrawn completely over a 1-minute period. The animals were then removed from the stereotactic apparatus and allowed to recover in a warmed cage. At the end of study period i.e. 72 hrs-10 weeks, animals were humanely euthanized using CO2 and each vertebral lumbar/caudal motion segment was dissected aseptically. IVDs were either fixed in formalin for histological analysis or the nucleus pulposus (healthy/injured) was harvested and lysed in RIPA buffer (50 mM Tris, pH=7.4, 150 mM NaCl, 1% NP-40 and protease inhibitor cocktail) for western blotting.
To determine the regenerative potential of NCCM, CTGF or TGFβ1, 4 IVDs per animal of 12 week old rats were injured using a 26G needle as described above. Four weeks post-injury, animals were randomized into groups of six and an intra-discal injection (˜8 μL) of either NCCM, CTGF (100 ng/mL) or TGFβ1 (10 ng/mL) was given under local anesthesia. For NCCM injected animals, the control group consisted of animals that received an intra-discal injection (˜8 μL) of Hybridoma culture medium only, while phosphate buffered saline (PBS, 1×, pH=7.2) served as control for CTGF and TGFβ1 injected animal groups. Six weeks later, the NPs from injured and control discs were harvested and either fixed in formalin for histological analysis or lysed in RIPA lysis buffer for western blotting. Each of this experiment was repeated independently to ensure reproducibility.
The tissues were fixed in 10% formalin and decalcified in 10% EDTA solution. The decalcified disc was initially split in the mid sagittal plane, embedded in paraffin and 5p thick sections were obtained for histological evaluation. Hemaetoxylin and eosin (H&E) and Safranin-O staining was performed to assess general morphology and proteoglycan content in these tissue sections as previously described^16. For immunohistochemistry/immunofluorescence (IF), paraffin-embedded sections (5 μm) of human degenerative disc NP, bovine NP, healthy canines (NCD) and rat (healthy/injured) discs were deparaffinized in xylene, hydrated in gradient alcohol followed by antigen retrieval in Tris-EDTA buffer (pH=9.0). The sections were incubated with hydrogen peroxide (0.3% v/v) in methanol for 15 minutes to quench the endogenous peroxidase activity, followed by blocking with 10% serum to preclude non-specific binding. Thereafter, the slides were incubated with either rabbit or goat polyclonal/mouse monoclonal primary antibodies overnight (O/N) at 4° C. […]

[7] = rat tail injured discs, western blots, FIG. 12(b)

| Molecule | IL-1β and TNFα induced caspase 9 activity [1] | expression of MMP-3, MMP-13 and Cox2 proteins in presence of growth factor [2] | cell viability (MTT) [3] | cell viability (MTT) [4] | cell viability (MTT) [5] | aggrecan and collagen II (immunohistochemical analysis) ([6]; intra-discal injection four weeks following injury, 10 weeks post-injury, vs vehicle control) | histological analysis, Safranin-O staining of NP ([6]; intra-discal injection four weeks following injury, CTGF 100 ng/mL, TGFβ1 10 ng/mL, 10 weeks post-injury, vs PBS) | expression of MMP-13 and Cox2 in NP tissue lysates [6, 7] | stem cell marker Oct4 in NP tissue lysates [6, 7] |
| --- | --- | --- | --- | --- | --- | --- | --- | --- | --- |
| WISP-2: Human recombinant Wnt-inducible soluble protein 2, Peprotech, identified in NCCM (protein, UniProt O76076 24-250, looked up) CCN family member 5: QLCPTPCTCPWPPPRCPLGVPLVLDGCGCCRVCARRLGEPCDQLHVCDASQGLVCQPGAGPGGRGALCLLAEDDSSCEVNGRLYREGETFQPHCSIRCRCEDGGFTCVPLCSEDVRLPSWDCPHPRRVEVLGKCCPEWVCGQGGGLGTQPLPAQGPQFSGLVSSLPPGVPCPEWSTAWGPCSTTCGLGMATRVSNQNRFCRLETQRRLCLSRPCPPSRGRSPQNSAF | significant reduction | reduced expression | no significant change | no significant change |  |  |  |  |  |
| CTGF: Human recombinant connective tissue growth factor, Peprotech cat #120-19, identified in NCCM (protein, UniProt P29279 27-349, looked up) CCN family member 2: QNCSGPCRCPDEPAPRCPAGVSLVLDGCGCCRVCAKQLGELCTERDPCDPHKGLFCHFGSPANRKIGVCTAKDGAPCIFGGTVYRSGESFQSSCKYQCTCLDGAVGCMPLCSMDVRLPSPDCPFPRRVKLPGKCCEEWVCDEPKDQTVVGPALAAYRLEDTFGPDPTMIRANCLVQTTEWSACSKTCGMGISTRVTNDNASCRLEKQSRLCMVRPCEADLEENIKKGKKCIRTPKISKPIKFELSGCTSMKTYRAKFCGVCTDGRCCTPHRTTTLPVEFKCPDGEVMKKNMMFIKTCACHYNCPGDNDIFESLYYRKMYGDMA | significant reduction | reduced expression | increased the viability |  | increased the viability | strong expression | healthy disc, rich in NCs | decreased expression | restoration |

From patent publication US12465618B2, “Compositions and methods for degenerative disc regeneration” (University Health Network, priority 2015, dated 2025)
